Assay results reported in patent US20070293425A1 (JULIUS MAXIMILIANS UNIVERSITAT WURZBURG, published 2007).

T1: Noggin/Fc
T1 construct: Bought (R&D systems); construct not described; also called Noggin-Fc fusion protein
T1 sequence (Q13253 whole entry, species assumed, looked up): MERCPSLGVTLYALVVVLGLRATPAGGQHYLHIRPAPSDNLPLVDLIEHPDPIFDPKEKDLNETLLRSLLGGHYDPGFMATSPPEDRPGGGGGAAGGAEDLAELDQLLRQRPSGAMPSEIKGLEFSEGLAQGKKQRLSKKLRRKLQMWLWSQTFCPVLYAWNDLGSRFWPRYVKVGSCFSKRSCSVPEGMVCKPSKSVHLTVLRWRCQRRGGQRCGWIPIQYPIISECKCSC


What was measured:
[1] = biological target: BRIA receptor on C2C12 and ATDC5 cells; assay: cell-based or functional assay
[2] = biological target: T2, Gremlin; assay: BIAcore, immobilised Gremlin, BMP-2 as analyte
T2 construct: Bought (R&D systems)
Method: (§1) Proteins were biotinylated and immobilised to streptavidin-coated sensor chip CM5 (Kirsch et al., 2000a). The extracellular domain of BRIA, BRIB and ARII were prepared as described (Kirsch et al., 2000a). […] Interaction with analyte was measured on a BIAcore 2000 system (Kirsch et al., 2000a). Evaluation of sensorgrams (Biaevaluation software 2.0) yielded kinetic constants for complex formation (kₒₙ) and dissociation (koff). […] Apparent dissociation constants KD were either calculated as KD=koff/kₒₙ or by evaluating dose dependency of equilibrium binding.

[3] = biological target: T3, Chordin CR1; assay: BIAcore, immobilised Chordin CR1, BMP-2 as analyte
T3 construct: domain: CR1; also called Chordin domain CR1
Method: as §1

[4] = biological target: T4, Chordin CR3; assay: BIAcore, immobilised Chordin CR3, BMP-2 as analyte
T4 construct: domain: CR3; also called Chordin domain CR3
Method: as §1

[5] = biological target: T5, Activin receptor II ectodomain; assay: BIAcore, immobilised ARII ectodomain, BMP-2 as analyte
T5 construct: extracellular domain; Biotinylated, immobilised on a streptavidin chip; also called ARII; type II receptor ARII
Method: as §1

[6] = biological target: T6, BRIBEC, extracellular domain of BMPR-IB; assay: BIAcore, immobilised BRIB ectodomain, BMP-2 as analyte
T6 construct: extracellular domain; Biotinylated, immobilised on a streptavidin chip; also called BRIB receptor
Method: as §1

[7] = biological target: T5, Activin receptor II ectodomain; assay: BIAcore, immobilised ARII ectodomain, mutein as analyte, against BMP-2 wild type
Method: as §1

[8] = biological target: T6, BRIBEC, extracellular domain of BMPR-IB; assay: BIAcore, immobilised BRIB ectodomain, mutein as analyte, against BMP-2 wild type
Method: as §1

[9] = biological target: T1, Noggin/Fc; assay: BIAcore, immobilised Noggin
Method: as §1

[10] = biological target: T1, Noggin/Fc; assay: BIAcore, immobilised Noggin, mutein as analyte, against BMP-2 wild type
Method: as §1

[11] = biological target: T2, Gremlin; assay: BIAcore, immobilised Gremlin, mutein as analyte, against BMP-2 wild type
Method: as §1

[12] = biological target: T3, Chordin CR1; assay: BIAcore, immobilised Chordin CR1, mutein as analyte, against BMP-2 wild type
Method: as §1

[13] = biological target: T4, Chordin CR3; assay: BIAcore, immobilised Chordin CR3, mutein as analyte, against BMP-2 wild type
Method: as §1

T5 sequence (P27037 20-135): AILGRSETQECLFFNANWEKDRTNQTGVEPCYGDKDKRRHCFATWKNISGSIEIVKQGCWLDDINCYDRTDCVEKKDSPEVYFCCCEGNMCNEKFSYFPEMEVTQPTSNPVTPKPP
T6 sequence (P36898 14-126): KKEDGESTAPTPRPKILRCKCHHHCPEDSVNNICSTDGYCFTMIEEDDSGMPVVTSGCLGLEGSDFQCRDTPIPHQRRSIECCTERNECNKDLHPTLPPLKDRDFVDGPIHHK
T2 sequence (O70326 25-184): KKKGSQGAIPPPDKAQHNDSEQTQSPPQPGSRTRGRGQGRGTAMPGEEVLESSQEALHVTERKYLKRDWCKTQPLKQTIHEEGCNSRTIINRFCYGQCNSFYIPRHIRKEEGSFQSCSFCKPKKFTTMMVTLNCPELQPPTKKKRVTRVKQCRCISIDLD

| Binder | ED50 of induction of alkaline phosphatase (ALP) activity in ATDC5 cells [1] | ED50 of induction of alkaline phosphatase (ALP) activity in C2C12 cells [1] | KD(Mut)/KD(WT) [7] | KD(Mut)/KD(WT) [8] | also measured |
| --- | --- | --- | --- | --- | --- |
| BMP-2 D53A (ligand) QAKHKQRKRLKSSCKRHPLYVDFSDVGWNDWIVAPPGYHAFYCHGECPFPLAAHLNSTNHAIVQTLVNSVNSKIPKACCVPTELSAISMLYLDENEKVVLKNYQDMVVEGCGCR |  |  | 1.2 ratio | 0.34 ratio |  |
| BMP-2 L51P (ligand, also called L51P mutein; BMP-2 proline mutein L51P) QAKHKQRKRLKSSCKRHPLYVDFSDVGWNDWIVAPPGYHAFYCHGECPFPPADHLNSTNHAIVQTLVNSVNSKIPKACCVPTELSAISMLYLDENEKVVLKNYQDMVVEGCGCR | > 1500 nM | > 1600 nM | 2.3 ratio |  | Kd [9]: 0.5 nM; KD(mut)/KD(WT) [10]: 0.27 ratio; KD(mut)/KD(WT) [11]: 0.55 ratio; KD(mut)/KD(WT) [12]: 0.85 ratio; KD(mut)/KD(WT) [13]: 0.9 ratio |
| BMP-2 D53P (ligand, also called BMP-2 proline mutein D53P) QAKHKQRKRLKSSCKRHPLYVDFSDVGWNDWIVAPPGYHAFYCHGECPFPLAPHLNSTNHAIVQTLVNSVNSKIPKACCVPTELSAISMLYLDENEKVVLKNYQDMVVEGCGCR | 140 nM | 330 nM | 1.2 ratio | 10 ratio | Kd [9]: 2.5 nM; KD(mut)/KD(WT) [10]: 1.3 ratio; KD(mut)/KD(WT) [11]: 0.7 ratio; KD(mut)/KD(WT) [12]: 0.7 ratio; KD(mut)/KD(WT) [13]: 1.1 ratio |

Continued, in another order:

| ED50 of induction of alkaline phosphatase (ALP) activity in ATDC5 cells [1] | ED50 of induction of alkaline phosphatase (ALP) activity in C2C12 cells [1] | KD(Mut)/KD(WT) [7] | KD(Mut)/KD(WT) [8] | Binder | also measured |
| --- | --- | --- | --- | --- | --- |
| 8 nM | 25 nM |  |  | BMP-2 wild type (ligand, also called hBMP-2; human BMP-2) QAKHKQRKRLKSSCKRHPLYVDFSDVGWNDWIVAPPGYHAFYCHGECPFPLADHLNSTNHAIVQTLVNSVNSKIPKACCVPTELSAISMLYLDENEKVVLKNYQDMVVEGCGCR | Kd [2]: 22 nM; Kd [3]: 61 nM; Kd [4]: 67 nM; Kd [5]: 14 nM; Kd [6]: 3.6 nM |
|  |  | 1.4 ratio | 3.2 ratio | BMP-2 Y103A (ligand) QAKHKQRKRLKSSCKRHPLYVDFSDVGWNDWIVAPPGYHAFYCHGECPFPLADHLNSTNHAIVQTLVNSVNSKIPKACCVPTELSAISMLYLDENEKVVLKNAQDMVVEGCGCR |  |
|  |  | 1.2 ratio | 1.7 ratio | BMP-2 W28F (ligand, also called W28F mutein) QAKHKQRKRLKSSCKRHPLYVDFSDVGFNDWIVAPPGYHAFYCHGECPFPLADHLNSTNHAIVQTLVNSVNSKIPKACCVPTELSAISMLYLDENEKVVLKNYQDMVVEGCGCR |  |
|  |  | 0.9 ratio |  | BMP-2 S69R (ligand, also called S69R mutein) QAKHKQRKRLKSSCKRHPLYVDFSDVGWNDWIVAPPGYHAFYCHGECPFPLADHLNSTNHAIVQTLVNRVNSKIPKACCVPTELSAISMLYLDENEKVVLKNYQDMVVEGCGCR |  |
